Tests used:
[1] = molecular target: core-bradavidin (Bradyrhizobium japonicum); experiment: ITC; core-bradavidin in the cell, ligand (Brad-tag or Brad-tag–EGFP) in the syringe, 15°C, 50 mM sodium phosphate pH 7.0, 100 mM NaCl; n is the stoichiometry per subunit
[2] = molecular target: core-bradavidin (Bradyrhizobium japonicum); experiment: as above; remark: listed apart in the source
[3] = molecular target: core-bradavidin (Bradyrhizobium japonicum); experiment: ITC; core-bradavidin, avidin, streptavidin or rhizavidin in the cell, Brad-tag in the syringe, 40°C, 50 mM sodium phosphate pH 7.0, 100 mM NaCl; n is the stoichiometry per subunit

B1: Brad-tag (synthetic peptide SEKLSNTK) (peptide)
peptide: SEKLSNTK
[1]
  Kd: 25 µM
  dH: 1.7 kcal mol^–1
  stoichiometry N: 0.94
[2]
  dH: 1.1 kcal/mol
[3]
  Kd: 26 µM
  dH: -4.4 kcal mol^–1
  stoichiometry N: 0.62
